From the DeepSol protein solubility set

Assay: soluble on expression in E. coli; label from the status in PepcDB or PDB records

Sequence	soluble on expression in E. coli
MSLKSDNDVVITGVGIVTCHGVGSQAHVALLSGAAVPEPVVETEKFKPYPVHPMPEIDWSAQIAKRGDQRQMENWQRLGVFAAGLALDDAGLKENTEACATMDMIVAAGGGERDINVDTLIVDEALKRNDREKLLNEKLTTELRPTLFLAQLSNLMAGNISIVHKVTGSSRTFMGEEAAGISAVETAFHRIRSGESSHALVGGAFSAERPDMILLFEAIGAHAQGGWQPLWSRGDQDGGGMISGSLGAFLVLESRKHASERGARIYARIDAIEGDRGSRDDGKMEKRMERLLAPAKDSAATVVFSGASGYDEVTVREKDILEKVLPNSVIRGFGGVTGHGLEAQFPLGLALAALTLESGAKVPTFDAAAEKPMGEAATEAVVTTVGHVRGEGVAVLSRDVEGHHHHHH	soluble
MSSVERYLSQLVKTEPQLETLKELYIGKKWHQLTEELLKLIHSGQVNRINLVELYDSFIREFESSLNPLALVRILVGIARKNYRDLNKALEFVDYATNSKAFISADEEASLFLKSETARLKLEGGNLSGVKQILEEVGVAMESTRDLDTVVHSSYHRVCAQYYKAVGPATKYYSSALLFFQYAPLDSFTVEERVHWAYDLGVASIVAETIFNFGEILEYDIMQSLKSEKLQWLLELLEAFKYGSIEKFNQIGNRARDQINQEPALSSNWQFLEQKIRLRSLMELATKKLVERVISFDDICSSCEVTKDQVEYLVMKALSLHLLQGTINEMDETVSISYVQPKTLDRNEVEGLYNRLIPWKTHVHEIALSLERSTEADLAQAQN	soluble
SSVASALLLQEAQAGFCRVDGTIDNNHTGFTGSGFANTNNAQGAAVVWAIDATSSGRRTLTIRYANGGTANRNGSLVINGGSNGNYTVSLPTTGAWTTWQTATIDVDLVQGNNIVQLSATTAEGLPNIDSLSVVGGTVRAGNCG	soluble
MSLENKKMEFWFVVGSQHLYGEEALKEVRKNSETIVDELNKSANLPYKIIFKDLATSADKIKEIMKEVNYRDEVAGVITWMHTFSPAKMWIAGTKILQKPLLHFATQYNENIPWKTIDMDYMNLHQSAHGDREYGFINARLKKHNKVVVGYWKDKEVQKQVSDWMKVAAGYIASESIKVARFGDNMRNVAVTEGDKVEAQIQFGWTVDYFGIGDLVAEMDKVSQDEINKTYEEFKDLYILDPGENDPAFYEKQVKEQIKIEIGLRRFLEKGNYNAFTTNFEDLYGMKQLPGLAVQRLNAEGYGFAGEGDWKTAALDRLLKVMTNNTATGFMEDYTYELSRGNEKALGAHMLEVDPTFASDKPKVIVKPLGIGDKEDPARLIFNGSTGKGVAVSMLDLGTHYRLIINGLTAVKPDEDMPNLPVAKMVWKPEPNFIEGVKSWIYAGGGHHTVVSLELTVEQVYDWSRMVGLEAVIIDKDTKLRDIIEKTTEGHHHHHH	soluble
MTNPMQATRKIISITDQNVVHREDQVAREYPLTIYVNDREFATMVCTQADLEEMVIGFLGSEGLIRFYKQDVASLSIDESRGFAYVSLTKELPTEWQFYSKRMIGSCCGKSRQSFYFHNDAKTAKTSMSRTTMTPEQCFRLMEALQEQSVIFQQTGGVHNAALATPEQMLISRTDIGRHNALDKLYGYCLMNGVPVRDKVLLFSGRISSEVLLKAAKIGVGIMLSKSAPTELALTMAEELNITTAGFIRDGRMNIYTVPERILTPKKEVQLEHHHHHH	soluble
MTPNKEDYLKCIYEIGIDLHKITNKEIAARMQVSPPAVTEMIKRMKSENLILKDKECGYLLTDLGLKLVSELYRKHRLIEVFLVHHLDYTSDQIHEEAEVLEHTVSDLFVERLDKLLGFPKTCPHGGTIPAKGELLVEINNLPLADIKEAGAYRLTRVHDSFDILHYLDKHSLHIGDQLQVKQFDGFSNTFTILSNDEDLQVNMDIAKQLYVEKIN	not soluble
MSLIKDIRTYKLCYEGINDERDALAIKGLAEHPMEIVATEIETSDGYVGYGESLAYGCSDAVQVTIEKILKPLLLKEDEELIEYLWDKMYKATLRFGRRGIAIAGISGVDTALWDIMGKKAKKPIYKLLGGSKRKVRAYITGGYYSEKKDLEKLRDEEAYYVKMGFKGIKVKIGAKSMEEDIERLKAIREVVGEDVKIAVDANNVYTFEEALEMGRRLEKLGIWFFEEPIQTDYLDLSARLAEELEVPIAGYETAYTRWEFYEIMRKRAVDIVQTDVMWTGGISEMMKIGNMAKVMGYPLIPHYSAGGISLIGNLHVAAALNSPWIEMHLRKNDLRDKIFKESIEIDNGHLVVPDRPGLGYTIRDGVFEEYKCKSEGHHHHHH	soluble
MVRYYHIEMLACPECRNPRLILYVVREKRGAMPPQPERLKCRRWCYLFDRPASTVPLSTCVSSCVERDIEEGVLVCPACGRWYPIVEGIPVMMDDKYRDPERDREIASRLAGHVPEWVKLRAVAPVPLEPREAGEG	soluble
MNKVWLTGLLTATASGVFSASTLAATEITWWHAMGGQLGETVNQLATDFNASQSDYKLTPVYKGSYTETLTAGIAAFRAGQAPNILQVFDAGAATIMSSKGVAKPVQDLMIESGYPFTAQDYIAGVRNFYADNTGKMVGMPFNSSTPVLYYNKDMLASVNAQAPQTYEQLEQVAAKLAEKGQAGFAQSLTPWIMFENFKSRHNLPLSDKQNGYQDLSTKIMFNSDDMLMHVKKLKEWSDKGYYKYYGSDWDANQTPFERGEVAMWMGSSGSFGGLRNRVKFNLGTTYLPYWESVTKNPTHTFIGGAALFALQGHTPAQDKGVAAFFAYLTKPETQMNWHKTTGYVPVTNAAYDLTKQSGYYQENPDAEVGVKQLSLPDGEWTKGYRLGYYPQVREVMHREFDNIFSGRSTVESSLNKVEDESAKLLNRFARTVQ	not soluble
MIVNEINSSEEVLQIEQIDVEGQRAEYNRIQQERQDYQYAMRFAVHVDQVAVQALPIPAQSPEHLVAEHSNAQVPVDARPNPPTQSPAPRAAPDHGPVQAPRNLAQALNLPRRARGRPRRSDVRRTRDAQDSVATQQGPNAEQSGILVPPASRQQPEHSATSTISAPLSPASSTNMALQNAPSDHGDQLIRDSSEDRQNVPAPRRSARIASHTQYRTSPYVSARQGHRLAIARGRAAPGTLDPSASRQSIPSTSDAPVLVPHAPPAPPSPTLQDCVICMEEPVNPKVCPKCLKMIGCAKCFRWWTVFRCWWQSSLNPSCPLCRLKWDSAPKVIAAKKFYDGK	not soluble
MAARQQLALLSVSEKAGLVEFARSLNALGLGLIASGGTATALRDAGLPVRDVSDLTGFPEMLGGRVKTLHPAVHAGILARNIPEDNADMNKQDFSLVRVVVCNLYPFVKTVSSPGVTVPEAVEKIDIGGVALLRAAAKNHARVTVVCDPADYSSVAKEMAASKDKDTSVETRRHLALKAFTHTAQYDAAISDYFRKEYSKGVSQLPLRYGMNPHQSPAQLYTTRPKLPLTVVNGSPGFINLCDALNAWQLVKELKQALGIPAAASFKHVSPAGAAVGIPLSEEEAQVCMVHDLHKTLTPLASAYARSRGADRMSSFGDFIALSDICDVPTAKIISREVSDGVVAPGYEEEALKILSKKKNGGYCVLQMDPNYEPDDNEIRTLYGLQLMQKRNNAVIDRSLFKNIVTKNKTLPESAVRDLIVASIAVKYTQSNSVCYAKDGQVIGIGAGQQSRIHCTRLAGDKANSWWLRHHPRVLSMKFKAGVKRAEVSNAIDQYVTGTIGEDEDLVKWQAMFEEVPAQLTEAEKKQWIAKLTAVSLSSDAFFPFRDNVDRAKRIGVQFIVAPSGSAADEVVIEACNELGITLIHTNLRLFHH	soluble
MAHHHHHHMIEDNIDENCQIYLNPKNWLKEFENTKINENDINEVLMNYFCVHRMYDVAKEFQKESNVKPDMPINTVKIRYLIQNEIMNNKIEEAIEHINNLDKGILKKHKDLVFFLKKQQLLKLILNNNINEAIIYSQQELASYVKEKPSLINEIDDVMMLMAYQDFNNEEAKNLIQKIEKKKNTLKRIDDIILNYYNVDSESTLEYMVKNVFFTQNVLSSKYPCSVPKIKNLKSGYIEYYEKYKKKKRKSSSKKYRSKDKDKVDKHDKKNVDNIVKDFDVTNDEEYRSV	not soluble
MRVLILGGTGNAAELAARVATIQGVDAITSLAGRTREPSVPLGDLRVGGFGGVAGLASYLQAMQIDLLIDATHPFASQISFNAADAAKEVGVPRLMLIRPPWEKGSGDRWMEVDNVEAAAASLQNQAHRVFLTVGRQELAAFAHLEEIWFLMRMIDPPVDDALVPPGMVLCDRGPFNLNNERQILIDRKIDTIVSKNSGGDATKPKIIAARELGVKVVMVNRPAIPPGEQVSDVEGALVWLLEKLHN	not soluble
MGSDKIHHHHHHMGPYRFVNREFLIITYRTDMDRLREIVPEPLEVKEPLVHYEFIRMPDSTGFGDYTESGQVIPVEYKGQPGGYTLAMYLNDHPPIAGGRELWGFPKKLAQPTLQTHIDTLLGTLDYGPVRVATGTMGYKHQELDLEEQAKRLAGANFLLKIIPHVDGSARVCELVRYYLQDIEMKGAWTGPASLQLAPHALAPVADLPVLEIVEARHLLADLTLGLGEVVYDYLAQ	not soluble
MSGSTESKKQPRRRFIGRKSGNSNNDKLTTVAENGNEIIHKQKSRIALGRSVNHVPEDILNDKELNEAIKLLPSNYNFEIHKTVWNIRKYNAKRIALQMPEGLLIYSLIISDILEQFCGVETLVMGDVSYGACCIDDFTARALDCDFIVHYAHSCLVPIDVTKIKVLYVFVTINIQEDHIIKTLQKNFPKGSRIATFGTIQFNPAVHSVRDKLLNDEEHMLYIIPPQIKPLSRGEVLGCTSERLDKEQYDAMVFIGDGRFHLESAMIHNPEIPAFKYDPYNRKFTREGYDQKQLVEVRAEAIEVARKGKVFGLILGALGRQGNLNTVKNLEKNLIAAGKTVVKIILSEVFPQKLAMFDQIDVFVQVACPRLSIDWGYAFNKPLLTPYEASVLLKKDVMFSEKYYPMDYYEAKGYGRGETPKHAIE	soluble
MGSDKIHHHHHHMHGNADVKFGNESVFDLARGSSTNDELLNICMIRSGFKKFEEEKEIQNTDGFFIADTSVYIKLGNRLGYLTKDRLLASKSVYNELSERTKLTQMGKEIIVFYLGMYSYRHLHKSPPVSEYNKSGDIPLIEETRKIKENIPEKVTLITADRQLKQRARTLGVNVIFLNTLKSDSGNMSELLLCASNRREYMEKYDYARRDLTITINDKEVIKIESDPTKEGFSRIKTLNKEFNYAKLIEKLYEMI	not soluble
MTAKMETTFYDDALNASFLPSESGPYGYSNPKILKQSMTLNLADPVGSLKPHLRAKNSDLLTSPDVGLLKLASPELERLIIQSSNGHITTTPTPTQFLCPKNVTDEQEGFAEGFVRALAELHSQNTLPSVTSAAQPVNGAGMVAPAVASVAGGSGSGGFSASLHSEPPVYANLSNFNPGALSSGGGAPSYGAAGLAFPAQPQQQQQPPHHLPQQMPVQHPRLQALKEEPQTVPEMPGETPPLSPIDMESQERIKAERKRMRNRIAASKCRKRKLERIARLEEKVKTLKAQNSELASTANMLREQVAQLKQKVMNHVNSGCQLMLTQQLQTF	soluble
MESVPSPRRVVLTPGARRALDAAGRLFYERGIHAVGVDLIAAEAGVTKKTLYDRFGSKEQIVVEYLADRDERWRAFLAGHLDTAGDSPGRRLTAIFDASREWTAENSAKGCSMVNAHAEISDPAHPAYAVIVGQKRWMLDLFTGVCRDASVRDPETLARTVMLLHEGALVSHGLQVFPEAVRLASDQASALLAAAAGPAR	not soluble
